Test results reported in the supplement of paper PMC9112550, “Optimization of the antimicrobial peptide Bac7 by deep mutational scanning” (BMC Biology, 2022).

System: Escherichia coli TOP10
Experiment: shrunken log2 fold change of peptide-encoding DNA abundance (4.5 h post-induction vs induction); higher = less antimicrobial activity (less host growth inhibition)
Conditions: time post-induction: 4.5 h; library: site-saturation at positions 5, 18, 19, 20
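Note: peptides expressed intracellularly from a pBAD plasmid library in pooled LB shake-flask culture, induced with 0.3% L-arabinose, DNA abundance read by NGS, three biological replicates, DESeq2 with apeglm shrinkage.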

RRIRIRPPRLPRPRPRPWWIPRP
shrunken log2 fold change: -0.0829

RRIRKRPPRLPRPRPRPEWIPRP
shrunken log2 fold change: 0.454

RRIRPRPPRLPRPRPRPRSKPRP
shrunken log2 fold change: -0.149

RRIRARPPRLPRPRPRPNCLPRP
shrunken log2 fold change: -0.111

RRIRYRPPRLPRPRPRPDGEPRP
shrunken log2 fold change: -0.159

RRIRMRPPRLPRPRPRPCLSPRP
shrunken log2 fold change: -0.0592

RRIRSRPPRLPRPRPRPHEQPRP
shrunken log2 fold change: 0.128

RRIRGRPPRLPRPRPRPIGAPRP
shrunken log2 fold change: 0.251

RRIRNRPPRLPRPRPRPECAPRP
shrunken log2 fold change: 0.00267

RRIRARPPRLPRPRPRPRMRPRP
shrunken log2 fold change: 0.954

RRIRKRPPRLPRPRPRPMRVPRP
shrunken log2 fold change: 0.848

RRIRSRPPRLPRPRPRPFNFPRP
shrunken log2 fold change: -0.112

RRIRHRPPRLPRPRPRPEYWPRP
shrunken log2 fold change: -0.0523

RRIRERPPRLPRPRPRPTVVPRP
shrunken log2 fold change: -0.188

RRIRCRPPRLPRPRPRPGYIPRP
shrunken log2 fold change: -0.258

RRIRPRPPRLPRPRPRPEPEPRP
shrunken log2 fold change: 0.433

RRIRKRPPRLPRPRPRPDWSPRP
shrunken log2 fold change: 0.0357

RRIRTRPPRLPRPRPRPVHPPRP
shrunken log2 fold change: -0.579

RRIRPRPPRLPRPRPRPEQKPRP
shrunken log2 fold change: 0.000209

RRIRNRPPRLPRPRPRPCTQPRP
shrunken log2 fold change: -0.147

RRIRYRPPRLPRPRPRPIAHPRP
shrunken log2 fold change: -0.901

RRIRIRPPRLPRPRPRPLIRPRP
shrunken log2 fold change: -0.508

RRIRARPPRLPRPRPRPTYDPRP
shrunken log2 fold change: -0.0892

RRIRGRPPRLPRPRPRPIECPRP
shrunken log2 fold change: 0.146

RRIRVRPPRLPRPRPRPTGMPRP
shrunken log2 fold change: 0.0943

RRIRQRPPRLPRPRPRPYGYPRP
shrunken log2 fold change: -0.354

RRIRFRPPRLPRPRPRPTNSPRP
shrunken log2 fold change: -0.271

RRIRMRPPRLPRPRPRPRNKPRP
shrunken log2 fold change: 0.667

RRIRFRPPRLPRPRPRPMHMPRP
shrunken log2 fold change: -0.011

RRIRDRPPRLPRPRPRPYVKPRP
shrunken log2 fold change: -0.313

RRIRERPPRLPRPRPRPYVCPRP
shrunken log2 fold change: -1.6

RRIRMRPPRLPRPRPRPKYAPRP
shrunken log2 fold change: 0.928

RRIRIRPPRLPRPRPRPELYPRP
shrunken log2 fold change: -0.0779

RRIRSRPPRLPRPRPRPYEHPRP
shrunken log2 fold change: -0.493

RRIRYRPPRLPRPRPRPAKEPRP
shrunken log2 fold change: 0.0142

RRIRRRPPRLPRPRPRPQCCPRP
shrunken log2 fold change: 0.49

RRIRHRPPRLPRPRPRPAKWPRP
shrunken log2 fold change: -0.0376

RRIRYRPPRLPRPRPRPHSTPRP
shrunken log2 fold change: -0.181

RRIRARPPRLPRPRPRPQVGPRP
shrunken log2 fold change: 0.391

RRIRMRPPRLPRPRPRPHARPRP
shrunken log2 fold change: 0.299

RRIRHRPPRLPRPRPRPASKPRP
shrunken log2 fold change: -0.0351

RRIRPRPPRLPRPRPRPELNPRP
shrunken log2 fold change: 0.117

RRIRRRPPRLPRPRPRPTHWPRP
shrunken log2 fold change: 0.988

RRIRYRPPRLPRPRPRPFAYPRP
shrunken log2 fold change: -0.00131

RRIRGRPPRLPRPRPRPTHLPRP
shrunken log2 fold change: 0.359

RRIRIRPPRLPRPRPRPDTMPRP
shrunken log2 fold change: -0.272

RRIRFRPPRLPRPRPRPWLAPRP
shrunken log2 fold change: 2.73

RRIRTRPPRLPRPRPRPDNFPRP
shrunken log2 fold change: -0.231

RRIRFRPPRLPRPRPRPHHWPRP
shrunken log2 fold change: -0.499

RRIRYRPPRLPRPRPRPPASPRP
shrunken log2 fold change: 0.249

RRIRNRPPRLPRPRPRPRYFPRP
shrunken log2 fold change: -0.342

RRIRFRPPRLPRPRPRPRHEPRP
shrunken log2 fold change: 0.197

RRIRNRPPRLPRPRPRPTGHPRP
shrunken log2 fold change: 0.0742

RRIRVRPPRLPRPRPRPFEPPRP
shrunken log2 fold change: 0.126

RRIRMRPPRLPRPRPRPIKYPRP
shrunken log2 fold change: 0.188

RRIRARPPRLPRPRPRPGWGPRP
shrunken log2 fold change: 0.463

RRIRHRPPRLPRPRPRPASGPRP
shrunken log2 fold change: 0.368

RRIRVRPPRLPRPRPRPEHFPRP
shrunken log2 fold change: 0.131

RRIRSRPPRLPRPRPRPDSVPRP
shrunken log2 fold change: 0.107

RRIRTRPPRLPRPRPRPAWVPRP
shrunken log2 fold change: 0.285

RRIRTRPPRLPRPRPRPFTYPRP
shrunken log2 fold change: -0.00136

RRIRDRPPRLPRPRPRPYHPPRP
shrunken log2 fold change: -0.449

RRIRVRPPRLPRPRPRPWAEPRP
shrunken log2 fold change: -0.0172

RRIRRRPPRLPRPRPRPLVRPRP
shrunken log2 fold change: 0.033

RRIRRRPPRLPRPRPRPNVPPRP
shrunken log2 fold change: 0.032

RRIRERPPRLPRPRPRPLCWPRP
shrunken log2 fold change: -0.0772

RRIRKRPPRLPRPRPRPEMDPRP
shrunken log2 fold change: 0.0842

RRIRSRPPRLPRPRPRPVDMPRP
shrunken log2 fold change: 0.0294

RRIRPRPPRLPRPRPRPLKIPRP
shrunken log2 fold change: -0.169

RRIRIRPPRLPRPRPRPQRWPRP
shrunken log2 fold change: 0.304

RRIRVRPPRLPRPRPRPPRIPRP
shrunken log2 fold change: 0.116

RRIRCRPPRLPRPRPRPIWCPRP
shrunken log2 fold change: 2.08e-06

RRIRGRPPRLPRPRPRPNNYPRP
shrunken log2 fold change: 0.0781

RRIRTRPPRLPRPRPRPIGQPRP
shrunken log2 fold change: -0.0623

RRIRIRPPRLPRPRPRPEMLPRP
shrunken log2 fold change: -0.119

RRIRCRPPRLPRPRPRPLNLPRP
shrunken log2 fold change: -0.489

RRIRMRPPRLPRPRPRPCLYPRP
shrunken log2 fold change: -0.331

RRIRKRPPRLPRPRPRPEYHPRP
shrunken log2 fold change: -0.0122

RRIRRRPPRLPRPRPRPCETPRP
shrunken log2 fold change: 0.0583

RRIRTRPPRLPRPRPRPLDVPRP
shrunken log2 fold change: -0.594

RRIRIRPPRLPRPRPRPLRFPRP
shrunken log2 fold change: -0.21

RRIRIRPPRLPRPRPRPDGDPRP
shrunken log2 fold change: -0.176

RRIRCRPPRLPRPRPRPGQRPRP
shrunken log2 fold change: 0.0965

RRIRDRPPRLPRPRPRPPHVPRP
shrunken log2 fold change: 0.0772

RRIRGRPPRLPRPRPRPSGCPRP
shrunken log2 fold change: 0.477

RRIRYRPPRLPRPRPRPNYVPRP
shrunken log2 fold change: -0.466

RRIRNRPPRLPRPRPRPKKYPRP
shrunken log2 fold change: -0.69

RRIRTRPPRLPRPRPRPSWRPRP
shrunken log2 fold change: 0.153

RRIRERPPRLPRPRPRPLRIPRP
shrunken log2 fold change: -0.277

RRIRSRPPRLPRPRPRPGSWPRP
shrunken log2 fold change: 0.605

RRIRNRPPRLPRPRPRPCHVPRP
shrunken log2 fold change: 0.0112

RRIRGRPPRLPRPRPRPNSQPRP
shrunken log2 fold change: 0.271

RRIRERPPRLPRPRPRPSFCPRP
shrunken log2 fold change: -0.593

RRIRNRPPRLPRPRPRPDMIPRP
shrunken log2 fold change: -0.667

RRIRNRPPRLPRPRPRPWHMPRP
shrunken log2 fold change: -0.0135

RRIRRRPPRLPRPRPRPFLSPRP
shrunken log2 fold change: 0.128

RRIRHRPPRLPRPRPRPANDPRP
shrunken log2 fold change: -0.0802

RRIRGRPPRLPRPRPRPTLRPRP
shrunken log2 fold change: 0.793

RRIRPRPPRLPRPRPRPACRPRP
shrunken log2 fold change: 0.183

RRIRRRPPRLPRPRPRPEWRPRP
shrunken log2 fold change: 0.639

RRIRWRPPRLPRPRPRPAVWPRP
shrunken log2 fold change: 0.32

RRIRIRPPRLPRPRPRPKIVPRP
shrunken log2 fold change: -0.716

RRIRLRPPRLPRPRPRPTPVPRP
shrunken log2 fold change: 0.559

RRIRRRPPRLPRPRPRPKPTPRP
shrunken log2 fold change: 0.426

RRIRNRPPRLPRPRPRPKSEPRP
shrunken log2 fold change: -0.414

RRIRPRPPRLPRPRPRPILTPRP
shrunken log2 fold change: -0.211

RRIRGRPPRLPRPRPRPCRDPRP
shrunken log2 fold change: 0.128

RRIRVRPPRLPRPRPRPWTHPRP
shrunken log2 fold change: -0.104

RRIRIRPPRLPRPRPRPFVFPRP
shrunken log2 fold change: -0.356

RRIRLRPPRLPRPRPRPYENPRP
shrunken log2 fold change: -0.0259

RRIRTRPPRLPRPRPRPCCAPRP
shrunken log2 fold change: 0.125

RRIRMRPPRLPRPRPRPWSPPRP
shrunken log2 fold change: -0.508

RRIRMRPPRLPRPRPRPPRCPRP
shrunken log2 fold change: 1.38

RRIRLRPPRLPRPRPRPDKPPRP
shrunken log2 fold change: -0.228

RRIRCRPPRLPRPRPRPVRCPRP
shrunken log2 fold change: -0.00859

RRIRGRPPRLPRPRPRPSRRPRP
shrunken log2 fold change: 0.647

RRIRYRPPRLPRPRPRPMWPPRP
shrunken log2 fold change: 0.158

RRIRQRPPRLPRPRPRPKREPRP
shrunken log2 fold change: 0.119

RRIRMRPPRLPRPRPRPAAPPRP
shrunken log2 fold change: 1.65

RRIRLRPPRLPRPRPRPCRHPRP
shrunken log2 fold change: -0.601

RRIRQRPPRLPRPRPRPTSYPRP
shrunken log2 fold change: -0.154

RRIRQRPPRLPRPRPRPGMAPRP
shrunken log2 fold change: 0.0366

RRIRMRPPRLPRPRPRPLLTPRP
shrunken log2 fold change: 2.33

RRIRPRPPRLPRPRPRPWESPRP
shrunken log2 fold change: 0.0303

RRIRTRPPRLPRPRPRPAEKPRP
shrunken log2 fold change: 0.0882

RRIRHRPPRLPRPRPRPYPIPRP
shrunken log2 fold change: -0.887

RRIRPRPPRLPRPRPRPHMTPRP
shrunken log2 fold change: -0.47

RRIRWRPPRLPRPRPRPDLLPRP
shrunken log2 fold change: 0.0586

RRIRRRPPRLPRPRPRPDELPRP
shrunken log2 fold change: 0.614

RRIRHRPPRLPRPRPRPLRDPRP
shrunken log2 fold change: 0.271

RRIRWRPPRLPRPRPRPQHEPRP
shrunken log2 fold change: -0.0328

RRIRFRPPRLPRPRPRPRKTPRP
shrunken log2 fold change: 0.0798

RRIRERPPRLPRPRPRPSPHPRP
shrunken log2 fold change: -0.229

RRIRCRPPRLPRPRPRPAKIPRP
shrunken log2 fold change: -0.361

RRIRPRPPRLPRPRPRPLYPPRP
shrunken log2 fold change: -0.244

RRIRGRPPRLPRPRPRPPPMPRP
shrunken log2 fold change: 1.19

RRIRKRPPRLPRPRPRPLTKPRP
shrunken log2 fold change: 0.457

RRIRLRPPRLPRPRPRPHECPRP
shrunken log2 fold change: 0.0907

RRIRRRPPRLPRPRPRPLLIPRP
shrunken log2 fold change: 0.145

RRIRVRPPRLPRPRPRPRCEPRP
shrunken log2 fold change: 0.133

RRIRSRPPRLPRPRPRPHIYPRP
shrunken log2 fold change: -0.607

RRIRWRPPRLPRPRPRPPPIPRP
shrunken log2 fold change: 0.574

RRIRDRPPRLPRPRPRPYCVPRP
shrunken log2 fold change: 0.00706

RRIRFRPPRLPRPRPRPFASPRP
shrunken log2 fold change: -0.705

RRIRFRPPRLPRPRPRPAQDPRP
shrunken log2 fold change: 0.381

RRIRARPPRLPRPRPRPMDWPRP
shrunken log2 fold change: 0.341

RRIRDRPPRLPRPRPRPRRDPRP
shrunken log2 fold change: 0.492

RRIRRRPPRLPRPRPRPYPHPRP
shrunken log2 fold change: -0.181

RRIRSRPPRLPRPRPRPIKIPRP
shrunken log2 fold change: -0.209

RRIRMRPPRLPRPRPRPISLPRP
shrunken log2 fold change: 0.0356
